From PMC8533110, “Feeling the Heat: The Campylobacter jejuni HrcA Transcriptional Repressor Is an Intrinsic Protein Thermosensor” (Biomolecules, 2021)

Target: T1, GST-HrcA fusion protein (C. jejuni NCTC11168 HrcA repressor fused to glutathione S-transferase) (C. jejuni NCTC 11168, UniProt Q9PPG2 1-264)
T1 construct: HrcA heat-shock transcriptional repressor of Campylobacter jejuni NCTC 11168; also called heat-shock repressor HrcA
T1 sequence (looked up): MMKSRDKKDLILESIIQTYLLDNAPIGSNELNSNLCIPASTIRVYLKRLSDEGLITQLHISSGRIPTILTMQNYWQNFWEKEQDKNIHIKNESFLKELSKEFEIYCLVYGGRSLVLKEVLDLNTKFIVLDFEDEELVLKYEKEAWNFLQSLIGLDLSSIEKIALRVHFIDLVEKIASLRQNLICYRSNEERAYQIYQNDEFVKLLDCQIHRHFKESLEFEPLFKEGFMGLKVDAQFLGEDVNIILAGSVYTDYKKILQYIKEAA
Assay: pull-down; GST-HrcA on glutathione-agarose as bait, incubated 16 h at 4 °C with pre-cleared C. jejuni NCTC11168 cytoplasmic extract in Res buffer (10 mM Tris-HCl pH 7.5, 100 mM NaCl, 20 mM KCl, 1 mM EDTA, 0.01% NP-40); GroEL detected by anti-GroEL immunoblot; GST alone as control bait
Settings: one partner purified

B1: GroEL chaperonin of C. jejuni (natural protein, UniProt O69289 1-545, looked up)
chain: MAKEIIFSDEARNKLYEGVKKLNDAVKVTMGPRGRNVLIQKSFGAPSITKDGVSVAKEVELKDSLENMGASLVREVASKTADQAGDGTTTATVLAHAIFKEGLRNITAGANPIEVKRGMDKACEAIVAELKKLSREVKDKKEIAQVATISANSDEKIGNLIADAMEKVGKDGVITVEEAKSINDELNVVEGMQFDRGYLSPYFITNAEKMTVELSSPYILLFDKKITNLKDLLPVLEQIQKTGKPLLIIAEDIEGEALATLVVNKLRGVLNISAVKAPGFGDRRKAMLEDIAILTGGEVISEELGRTLESATIQDLGQASSVIIDKDNTTIVNGAGEKANIDARVNQIKAQIAETTSDYDREKLQERLAKLSGGVAVIKVGAATETEMKEKKDRVDDALSATKAAVEEGIVIGGGAALIKAKAKIKLDLQGDEAIGAAIVERALRAPLRQIAENAGFDAGVVVNSVENAKDENTGFDAAKGEYVNMLESGIIDPVKVERVALLNAVSVASMLLTTEATISEIKEDKPTMPDMSGMGGMGGMGGMM
notes: GroEL (60 kDa chaperonin) of Campylobacter jejuni NCTC 11168, endogenous protein detected by anti-GroEL immunoblot; Only GroEL was detected in the pull-down; also called GroE chaperonin; source: endogenous, cytoplasmic protein extract of C. jejuni NCTC11168 wild type
fold intensity of the GroEL band against the GST control pull-down: 6.2 fold
